For data set [1], the target named is T1, Hrp48-RRM12 (Drosophila melanogaster, UniProt P48809 1-173).
T1 sequence: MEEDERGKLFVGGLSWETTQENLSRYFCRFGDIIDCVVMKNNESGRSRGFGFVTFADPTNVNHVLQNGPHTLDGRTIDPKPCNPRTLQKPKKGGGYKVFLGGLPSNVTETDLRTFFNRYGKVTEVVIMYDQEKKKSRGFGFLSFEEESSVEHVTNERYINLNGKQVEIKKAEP
Put plainly: ITC. (ITC needs no label: the signal is the heat of the interaction.)

In data set [2] the target is T2, Hrp48-RRM2 (Drosophila melanogaster, UniProt P48809 89-173).
T2 sequence: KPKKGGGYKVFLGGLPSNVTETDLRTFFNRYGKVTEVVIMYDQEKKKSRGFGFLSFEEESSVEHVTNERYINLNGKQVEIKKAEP
The experiment in a line: NMR.

In data set [3] the target is T3, Hrp48-RRM1 (Drosophila melanogaster, UniProt P48809 1-88).
T3 sequence: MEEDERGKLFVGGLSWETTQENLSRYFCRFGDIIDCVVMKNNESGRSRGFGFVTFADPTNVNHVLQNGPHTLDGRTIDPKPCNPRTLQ
The experiment in a line: NMR.

Data set [4] deals with T4, Sxl-dRBD3;Unr-CSD12 (Drosophila melanogaster;Drosophila …, UniProt P19339;B7Z0E2 123-294;186-337, |).
T4 sequence 1: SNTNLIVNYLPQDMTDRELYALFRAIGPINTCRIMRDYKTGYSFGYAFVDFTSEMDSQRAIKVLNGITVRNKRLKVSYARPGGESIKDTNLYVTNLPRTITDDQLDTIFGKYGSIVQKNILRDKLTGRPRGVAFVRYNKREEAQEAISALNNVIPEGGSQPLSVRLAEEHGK
T4 sequence 2: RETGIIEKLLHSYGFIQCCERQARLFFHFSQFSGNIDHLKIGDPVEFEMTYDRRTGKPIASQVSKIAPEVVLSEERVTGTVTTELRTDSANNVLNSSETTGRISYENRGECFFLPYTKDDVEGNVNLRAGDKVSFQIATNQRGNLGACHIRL
Put plainly: SEC-MALS. On the technique in general: Size exclusion chromatography separates by hydrodynamic size, large species first.

Data set [5] has as its target T5, Hrp48-RRM12;Sxl-dRBD3;Unr-CSD12 (Drosophila melanogaster;Drosophila …, UniProt P48809;P19339;B7Z0E2 1-173;123-294;186-337, ||).
T5 sequence 1: T1 sequence
T5 sequence 2: T4 sequence 1
T5 sequence 3: T4 sequence 2
Put plainly: SEC-MALS.

Data set [6] deals with T2, Hrp48-RRM2. Put plainly: NMR. This is another data set of the same source.
In data set [7] the target is T3, Hrp48-RRM1. The experiment in a line: ITC.
Data set [8] concerns the molecule itself. The experiment in a line: SEC-MALS.
Data set [9] addresses T1, Hrp48-RRM12. Put plainly: EMSA. (A gel shift assay detects complexes by their altered migration in electrophoresis.)
The target in data set [10] is T5, Hrp48-RRM12;Sxl-dRBD3;Unr-CSD12. Put plainly: SEC-MALS. The source holds these as a separate data set.
Data set [11] concerns the target T4, Sxl-dRBD3;Unr-CSD12. The experiment in a line: SEC.
Data set [12] deals with T1, Hrp48-RRM12. Put plainly: ITC. This is another data set of the same source.
Data set [13] concerns the target T1, Hrp48-RRM12. The experiment in a line: NMR.
Data set [14] deals with T3, Hrp48-RRM1. The experiment in a line: ITC. The source holds these as a separate data set.
Data set [15] concerns the target T1, Hrp48-RRM12. Put plainly: NMR. This is another data set of the same source.

Positions count from the first letter of the chain named. Read-outs that look alike come from different tables or passages of the source.

B1: 10-mer-WT (ssRNA)
RNA: UAGGAUUAAG
As for B1, the affinity in data set [1], expressed as Kd, was 17.3 ± 2.9 nM.

B2: 9-mer (P-element site) (ssRNA)
RNA: UAGGUUAAG
Turning to B2, in [1], binding was characterised by a dissociation constant (Kd) of 14.8 ± 3.7 nM.

B3: 6-mer-3 (ssRNA)
RNA: AUUAAG
Take B3: the binding result in data set [2] and in data set [3] was “binds” in each case.

B4: WT-30-mer (ssRNA)
RNA: UUUUUUUGAGCACGUGAACCUAGGAUUAAG
With B4, the binding result in data set [4] and in data set [5] was “binds” in each case.

B5: 6-mer-1 (ssRNA)
RNA: AACCUA
Consider B5, for which the binding result in [6] is “no binding”. Besides, the Kd (in general, the constant that tells how readily two partners part at equilibrium) in data set [7] was found to be 1.3 µM.

B6: Hrp48-RRM2 (residues 89-173) (domain or fragment, Drosophila melanogaster, UniProt P48809 89-173, looked up)
chain: T2 sequence
Take B6: in data set [8], the stoichiometry N (commonly the number of molecules, sites or subunits per partner or assembly) was determined as 4.

B7: GG-30-mer-Cy5 (ssRNA)
RNA: B4 RNA with C19G, C20G
Turning to B7, the binding result in [9] is listed as “binds”.

B8: GG-30-mer (ssRNA)
RNA: B4 RNA with C19G, C20G
In the case of B8, the binding result in data set [10], in data set [11] and in data set [12] was “binds” each time.

B9: 4-mer-6 (ssRNA)
RNA: UAAG
In the case of B9, the binding result in data set [13] was “binds”.

B10: 6-mer-4 (ssRNA)
RNA: AAGAAC
Regarding B10, the binding result in data set [14] and in [2] was “binds” each time.

B11: 4-mer-3 (ssRNA)
RNA: UAGG
As to B11, in [15], the binding result is on record as “binds”.

B12: 6-mer-2 (ssRNA)
RNA: UAGGAU
Turning to B12, binding in data set [7] was characterised by a dissociation constant (Kd) of 8.7 µM.

For the origin of these results see article doi:10.1101/2024.03.26.586676 (bioRxiv, 2024).
